Assays:
HeLa Kyoto [1] = assay: solubility in G1/S (NP-40 vs SDS abundance) (log2 ratio); higher = more soluble; conditions: cell cycle stage: G1/S
HeLa Kyoto [2] = assay: melting temperature (median over replicates), in situ; higher = more thermally stable
HeLa Kyoto [3] = assay: solubility change mitosis vs G1/S (difference of NP-40 vs SDS log2 ratios) (log2 ratio difference); higher = more soluble in mitosis
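Wherever melting temperature (median over replicates), in situ is given: HeLa Kyoto cells synchronized by double thymidine or nocodazole block, proteins quantified by TMT10plex mass spectrometry, three independent biological replicates.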
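Wherever solubility change mitosis vs G1/S (difference of NP-40 vs SDS log2 ratios) is given: synchronized HeLa Kyoto cells (double thymidine block for G1/S, nocodazole release for mitosis), protein amounts in NP-40 versus SDS lysates quantified by mass spectrometry, three biological replicates.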
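Wherever solubility in G1/S (NP-40 vs SDS abundance) is given: HeLa Kyoto cells arrested at G1/S by double thymidine block, proteins quantified by TMT10plex mass spectrometry in mild NP-40 versus SDS extracts, three biological replicates.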

HAUS7, sequence (chain, as listed by the source): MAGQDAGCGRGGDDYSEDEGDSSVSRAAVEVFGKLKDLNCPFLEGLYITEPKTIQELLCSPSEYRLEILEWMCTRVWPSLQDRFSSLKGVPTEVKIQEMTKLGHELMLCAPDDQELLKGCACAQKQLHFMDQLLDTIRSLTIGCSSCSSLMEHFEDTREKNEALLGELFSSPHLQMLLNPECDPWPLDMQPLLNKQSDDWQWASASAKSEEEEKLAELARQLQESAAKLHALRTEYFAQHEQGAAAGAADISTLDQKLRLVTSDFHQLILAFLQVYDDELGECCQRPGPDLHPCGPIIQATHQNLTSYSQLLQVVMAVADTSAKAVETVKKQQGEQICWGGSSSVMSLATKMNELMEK

Substance	solubility in G1/S (log2) (HeLa Kyoto [1])	melting temperature (HeLa Kyoto [2]; cell cycle stage: G1/S) [°C]	melting temperature (HeLa Kyoto [2]; cell cycle stage: mitosis) [°C]	solubility change mitosis (log2) (HeLa Kyoto [3])
MRDYDEVTAFLGEWGPFQRLIFFLLSASIIPNGFTGLSSVFLIATPEHRCRVPDAANLSSAWRNHTVPLRLRDGREVPHSCRRYRLATIANFSALGLEPGRDVDLGQLEQESCLDGWEFSQDVYLSTIVTEWNLVCEDDWKAPLTISLFFVGVLLGSFISGQLSDRFGRKNVLFVTMGMQTGFSFLQIFSKNFEMFVVLFVLVGMGQISNYVAAFVLGTEILGKSVRIIFSTLGVCIFYAFGYMVLPLFAYFIRDWRMLLVALTMPGVLCVALWWFIPESPRWLISQGRFEEAEVIIRKAAKANGIVVPSTIFDPSELQDLSSKKQQSHNILDLLRTWNIRMVTIMSIMLWMTISVGYFGLSLDTPNLHGDIFVNCFLSAMVEVPAYVLAWLLLQYLPRRYSMATALFLGGSVLLFMQLVPPDLYYLATVLVMVGKFGVTAAFSMVYVYTAELYPTVVRNMGVGVSSTASRLGSILSPYFVYLGAYDRFLPYILMGSLTILTAILTLFLPESFGTPLPDTIDQMLRVKGMKHRKTPSHTRMLKDGQERPTILKSTAF [SLC22A5]	0.228	59.7	56.9	-0.137
MSCGNEFVETLKKIGYPKADNLNGEDFDWLFEGVEDESFLKWFCGNVNEQNVLSERELEAFSILQKSGKPILEGAALDEALKTCKTSDLKTPRLDDKELEKLEDEVQTLLKLKNLKIQRRNKCQLMASVTSHKSLRLNAKEEEATKKLKQSQGILNAMITKISNELQALTDEVTQLMMFFRHSNLGQGTNPLVFLSQFSLEKYLSQEEQSTAALTLYTKKQFFQGIHEVVESSNEDNFQLLDIQTPSICDNQEILEERRLEMARLQLAYICAQHQLIHLKASNSSMKSSIKWAEESLHSLTSKAVDKENLDAKISSLTSEIMKLEKEVTQIKDRSLPAVVRENAQLLNMPVVKGDFDLQIAKQDYYTARQELVLNQLIKQKASFELLQLSYEIELRKHRDIYRQLENLVQELSQSNMMLYKQLEMLTDPSVSQQINPRNTIDTKDYSTHRLYQVLEGENKKKELFLTHGNLEEVAEKLKQNISLVQDQLAVSAQEHSFFLSKRNKDVDMLCDTLYQGGNQLLLSDQELTEQFHKVESQLNKLNHLLTDILADVKTKRKTLANNKLHQMEREFYVYFLKDEDYLKDIVENLETQSKIKAVSLED [HAUS3]	0.0967	48.6	49.8	0.224
HAUS7	0.51	50.7	–	-0.0535
MEADSPAGPGAPEPLAEGAAAEFSSLLRRIKGKLFTWNILKTIALGQMLSLCICGTAITSQYLAERYKVNTPMLQSFINYCLLFLIYTVMLAFRSGSDNLLVILKRKWWKYILLGLADVEANYVIVRAYQYTTLTSVQLLDCFGIPVLMALSWFILHARYRVIHFIAVAVCLLGVGTMVGADILAGREDNSGSDVLIGDILVLLGASLYAISNVCEEYIVKKLSRQEFLGMVGLFGTIISGIQLLIVEYKDIASIHWDWKIALLFVAFALCMFCLYSFMPLVIKVTSATSVNLGILTADLYSLFVGLFLFGYKFSGLYILSFTVIMVGFILYCSTPTRTAEPAESSVPPVTSIGIDNLGLKLEENLQETHSAVL [SLC35F2]	0.147	–	56.1	-0.182
MGLHLRPYRVGLLPDGLLFLLLLLMLLADPALPAGRHPPVVLVPGDLGNQLEAKLDKPTVVHYLCSKKTESYFTIWLNLELLLPVIIDCWIDNIRLVYNKTSRATQFPDGVDVRVPGFGKTFSLEFLDPSKSSVGSYFHTMVESLVGWGYTRGEDVRGAPYDWRRAPNENGPYFLALREMIEEMYQLYGGPVVLVAHSMGNMYTLYFLQRQPQAWKDKYIRAFVSLGAPWGGVAKTLRVLASGDNNRIPVIGPLKIREQQRSAVSTSWLLPYNYTWSPEKVFVQTPTINYTLRDYRKFFQDIGFEDGWLMRQDTEGLVEATMPPGVQLHCLYGTGVPTPDSFYYESFPDRDPKICFGDGDGTVNLKSALQCQAWQSRQEHQVLLQELPGSEHIEMLANATTLAYLKRVLLGP [PLA2G15]	0.446	54.7	56.1	0.0116
MKIGSGFLSGGGGTGSSGGSGSGGGGSGGGGGGGSSGRRAEMEPTFPQGMVMFNHRLPPVTSFTRPAGSAAPPPQCVLSSSTSAAPAAEPPPPPAPDMTFKKEPAASAAAFPSQRTSWGFLQSLVSIKQEKPADPEEQQSHHHHHHHHYGGLFAGAEERSPGLGGGEGGSHGVIQDLSILHQHVQQQPAQHHRDVLLSSSSRTDDHHGTEEPKQDTNVKKAKRPKPESQGIKAKRKPSASSKPSLVGDGEGAILSPSQKPHICDHCSAAFRSSYHLRRHVLIHTGERPFQCSQCSMGFIQKYLLQRHEKIHSREKPFGCDQCSMKFIQKYHMERHKRTHSGEKPYKCDTCQQYFSRTDRLLKHRRTCGEVIVKGATSAEPGSSNHTNMGNLAVLSQGNTSSSRRKTKSKSIAIENKEQKTGKTNESQISNNINMQSYSVEMPTVSSSGGIIGTGIDELQKRVPKLIFKKGSRKNTDKNYLNFVSPLPDIVGQKSLSGKPSGSLGIVSNNSVETIGLLQSTSGKQGQISSNYDDAMQFSKKRRYLPTASSNSAFSINVGHMVSQQSVIQSAGVSVLDNEAPLSLIDSSALNAEIKSCHDKSGIPDEVLQSILDQYSNKSESQKEDPFNIAEPRVDLHTSGEHSELVQEENLSPGTQTPSNDKASMLQEYSKYLQQAFEKSTNASFTLGHGFQFVSLSSPLHNHTLFPEKQIYTTSPLECGFGQSVTSVLPSSLPKPPFGMLFGSQPGLYLSALDATHQQLTPSQELDDLIDSQKNLETSSAFQSSSQKLTSQKEQKNLESSTGFQIPSQELASQIDPQKDIEPRTTYQIENFAQAFGSQFKSGSRVPMTFITNSNGEVDHRVRTSVSDFSGYTNMMSDVSEPCSTRVKTPTSQSYR [ZNF281]	-0.357	45.1	47.4	0.0949
MRRAAGMEDFSAEEEESWYDQQDLEQDLHLAAELGKTLLERNKELEGSLQQMYSTNEEQVQEIEYLTKQLDTLRHVNEQHAKVYEQLDLTARDLELTNHRLVLESKAAQQKIHGLTETIERLQAQVEELQAQVEQLRGLEQLRVLREKRERRRTIHTFPCLKELCTSPRCKDAFRLHSSSLELGPRPLEQENERLQTLVGALRSQVSQERQRKERAEREYTAVLQEYSELERQLCEMEACRLRVQELEAELLELQQMKQAKTYLLGPDDHLAEALLAPLTQAPEADDPQPGRGDDLGAQDGVSSPAASPGHVVRKSCSDTALNAIVAKDPASRHAGNLTLHANSVRKRGMSILREVDEQYHALLEKYEELLSKCRQHGAGVRHAGVQTSRPISRDSSWRDLRGGEEGQGEVKAGEKSLSQHVEAVDKRLEQSQPEYKALFKEIFSRIQKTKADINATKVKTHSSK [CDR2L]	0.549	52.5	–	-0.204
MNVALQELGAGSNMVEYKRATLRDEDAPETPVEGGASPDAMEVGKGASPFSPGPSPGMTPGTPRSSGLFWRVTCPHLRSISGLCSRTMVGFQKGTRQLLGSRTQLELVLAGASLLLAALLLGCLVALGVQYHRDPSHSTCLTEACIRVAGKILESLDRGVSPCEDFYQFSCGGWIRRNPLPDGRSRWNTFNSLWDQNQAILKHLLENTTFNSSSEAEQKTQRFYLSCLQVERIEELGAQPLRDLIEKIGGWNITGPWDQDNFMEVLKAVAGTYRATPFFTVYISADSKSSNSNVIQVDQSGLFLPSRDYYLNRTANEKVLTAYLDYMEELGMLLGGRPTSTREQMQQVLELEIQLANITVPQDQRRDEEKIYHKMSISELQALAPSMDWLEFLSFLLSPLELSDSEPVVVYGMDYLQQVSELINRTEPSILNNYLIWNLVQKTTSSLDRRFESAQEKLLETLYGTKKSCVPRWQTCISNTDDALGFALGSLFVKATFDRQSKEIAEGMISEIRTAFEEALGQLVWMDEKTRQAAKEKADAIYDMIGFPDFILEPKELDDVYDGYEISEDSFFQNMLNLYNFSAKVMADQLRKPPSRDQWSMTPQTVNAYYLPTKNEIVFPAGILQAPFYARNHPKALNFGGIGVVMGHELTHAFDDQGREYDKEGNLRPWWQNESLAAFRNHTACMEEQYNQYQVNGERLNGRQTLGENIADNGGLKAAYNAYKAWLRKHGEEQQLPAVGLTNHQLFFVGFAQVWCSVRTPESSHEGLVTDPHSPARFRVLGTLSNSRDFLRHFGCPVGSPMNPGQLCEVW [ECE2]	0.0962	–	50.7	-0.189
MSQSRHRAEAPPLEREDSGTFSLGKMITAKPGKTPIQVLHEYGMKTKNIPVYECERSDVQIHVPTFTFRVTVGDITCTGEGTSKKLAKHRAAEAAINILKANASICFAVPDPLMPDPSKQPKNQLNPIGSLQELAIHHGWRLPEYTLSQEGGPAHKREYTTICRLESFMETGKGASKKQAKRNAAEKFLAKFSNISPENHISLTNVVGHSLGCTWHSLRNSPGEKINLLKRSLLSIPNTDYIQLLSEIAKEQGFNITYLDIDELSANGQYQCLAELSTSPITVCHGSGISCGNAQSDAAHNALQYLKIIAERK [PRKRA]	0.0756	50.1	50	0.0942
MLGWIKRLIRMVFQQVGVSMQSVLWSRKPYGSSRSIVRKIGTNLSLIQCPRVQFQINSHATEWSPSHPGEDAVASFADVGWVAKEEGECSARLRTEVRSRPPLQDDLLFFEKAPSRQISLPDLSQEEPQLKTPALANEEALQKICALENELAALRAQIAKIVTQQEQQNLTAGDLDSTTFGTIPPHPPPPPPPLPPPALGLHQSTSAVDLIKERREKRANAGKTLVKNNPKKPEMPNMLEILKEMNSVKLRSVKRSEQDVKPKPVDATDPAALIAEALKKKFAYRYRSDSQDEVEKGIPKSESEATSERVLFGPHMLKPTGKMKALIENVSDS [MTFR1]	0.556	49.3	52.1	0.0301
USP32	-0.319	50.4	50.3	-0.0623
MEDSGKTFSSEEEEANYWKDLAMTYKQRAENTQEELREFQEGSREYEAELETQLQQIETRNRDLLSENNRLRMELETIKEKFEVQHSEGYRQISALEDDLAQTKAIKDQLQKYIRELEQANDDLERAKRATIMSLEDFEQRLNQAIERNAFLESELDEKENLLESVQRLKDEARDLRQELAVQQKQEKPRTPMPSSVEAERTDTAVQATGSVPSTPIAHRGPSSSLNTPGSFRRGLDDSTGGTPLTPAARISALNIVGDLLRKVGALESKLASCRNLVYDQSPNRTGGPASGRSSKNRDGGERRPSSTSVPLGDKGLDTSCRWLSKSTTRSSSSC [NDE1]	0.236	54.1	53.7	0.568

— the supplement of paper PMC5998384
